Assay results as given in PMC7801609, “Isolation of MERS-related coronavirus from lesser bamboo bats that uses DPP4 and infects human-DPP4-transgenic mice” (Nature Communications, 2021).

Columns and labels:
Assay in all cases: SPR; BIAcore X100, CM5 chip, 25 °C; […]; HBS-P+ buffer ([…]
[1] = target: HKU4-RBD fused to a C-terminal His-tag (Tylonycteris-bat-CoV-HKU4) (UniProt A3EX94)
[2] = target: MERS-RBD fused to a C-terminal His-tag (MERS-CoV) (UniProt K9N5Q8)
[3] = target: peptidase domain of hDPP4 (residues 39-766) fused to a C-terminal His-tag (human, UniProt P27487 39-766); details: both partners purified
Chain of peptidase domain of hDPP4 (residues 39-766) fused to a C-terminal His-tag (human, UniProt P27487 39-766) (P27487 39-766): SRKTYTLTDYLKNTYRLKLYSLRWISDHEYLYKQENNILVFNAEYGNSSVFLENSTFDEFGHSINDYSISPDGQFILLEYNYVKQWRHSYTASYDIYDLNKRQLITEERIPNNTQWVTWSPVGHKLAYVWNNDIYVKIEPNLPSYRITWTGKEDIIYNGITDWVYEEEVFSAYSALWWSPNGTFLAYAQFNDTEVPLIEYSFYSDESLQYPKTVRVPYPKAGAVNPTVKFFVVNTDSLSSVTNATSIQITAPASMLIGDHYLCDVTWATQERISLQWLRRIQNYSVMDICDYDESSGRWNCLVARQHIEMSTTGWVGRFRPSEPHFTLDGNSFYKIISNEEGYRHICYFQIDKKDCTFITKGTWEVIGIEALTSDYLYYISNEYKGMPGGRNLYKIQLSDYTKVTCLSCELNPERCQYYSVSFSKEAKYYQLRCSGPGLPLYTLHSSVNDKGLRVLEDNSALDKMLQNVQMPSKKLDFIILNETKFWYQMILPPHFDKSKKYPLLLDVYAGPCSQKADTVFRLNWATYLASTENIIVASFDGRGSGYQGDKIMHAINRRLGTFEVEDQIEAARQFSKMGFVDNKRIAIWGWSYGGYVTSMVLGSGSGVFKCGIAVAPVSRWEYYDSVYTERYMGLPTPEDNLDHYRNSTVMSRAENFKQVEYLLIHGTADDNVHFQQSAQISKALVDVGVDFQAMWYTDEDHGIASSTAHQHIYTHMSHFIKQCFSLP

Chain of peptidase domain of hDPP4 (residues 39-766) fused to a C-terminal His-tag (from UniProt P27487 39-766) (domain or fragment) (P27487 39-766): as above

| Molecule | Kd [1] [nM] | Kd [2] [µM] | Kd [3] [nM] |
| --- | --- | --- | --- |
| peptidase domain of TpDPP4 (residues 37-764) fused to a C-terminal His-tag (domain or fragment) | 2580 |  |  |
| peptidase domain of dcDPP4 (residues 39-765) fused to a C-terminal His-tag (domain or fragment) | > 47700 | > 18.7 |  |
| peptidase domain of hDPP4 (residues 39-766) fused to a C-terminal His-tag (from UniProt P27487 39-766) (domain or fragment) | 1100 |  |  |
| MERS-RBD fused to a C-terminal His-tag (domain or fragment) EAKPSGSVVEQAEGVECDFSPLLSGTPPQVYNFKRLVFTNCNYNLTKLLSLFSVNDFTCSQISPAAIASNCYSSLILDYFSYPLSMKSDLSVSSAGPISQFNYKQSFSNPTCLILATVPHNLTTITKPLKYSYINKCSRFLSDDRTEVPQLVNANQYSPCVSIVPSTVWEDGDYYRKQLSPLEGGGWLVASGSTVAMTEQLQMGFGITVQYGTDTNSVCPKLEFANDTKIASQLGNCVEY |  |  | 632 |
